Measurements as given in the RNAGym collection of RNA variant scans (doi:10.1073/pnas.2313332121).

B1: TPR t1 (parent)
chain: GACCAAUCUGCCCUCAGAGCUCGAGAACAUCUUCGGAUGCAGAGGAGGCAGGCUUCGGUGGCGCGAUAGCGCCAACGUCCUCAACCUCCAAUGCAUCCCACCACAUGAUGAUGCCUGAAGAGCCUUGGUUUUUUG

Variants of: B1
Assay: polymerase ribozyme fitness, log enrichment relative to wild type (log ratio); higher = more active; in vitro selection for triplet polymerase activity
Summary of the method: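 Only genotypes with ≥10 input reads and ≥1 read per output were kept after Illumina sequencing of input and output libraries. These libraries were PCR-built, transcribed mutants of each subunit of a heterodimeric triplet polymerase ribozyme, each put through one triplicate in vitro selection round with frozen incubation at −7 °C, gel excision of extended constructs, streptavidin-bead capture and RT-PCR. Fitness is a logarithmic ratio of genotype enrichment to wild-type enrichment, from inverse-variance-weighted replicate averages, with the logarithm in base 2.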

| Variant | polymerase ribozyme fitness (log ratio) |
| --- | --- |
| U32C G93U | -0.79 |
| G10A A16U C85G | -3.05 |
| C49U G51U U78G C79G U109G C124G | -6.06 |
| C49A U132A | -0.997 |
| C22A A26C A27U C86A U112C | -6.59 |
| A6C G61A | -0.848 |
| C4U C12U | 0.148 |
| U55A G69A C94A | -4.1 |
| G10U C20A A66G | -4.29 |
| U81C C85A C89A | -4.24 |
| C34A G45C U59A C98G | -3.73 |
| G63U C82A | -0.955 |
| C34G C123U | -5.16 |
| C72A U81A C94U C114A | -2.21 |
| A29G U59G G60U U130G | -2.01 |
| C8U A37G G61U U130A | -0.107 |
| G17C G113A | -6.34 |
| C40U G57U G120C | 0.687 |
| C85G G120A | -1.01 |
| C22U C82A A84C G93C U112C | -4.92 |
| C13A U21A A29U | -4.11 |
| C97G G107C A111U | -7.12 |
| C12U G52A C86U C97A | -4.13 |
| C22G C104A C123A | -3.01 |

| Variant | polymerase ribozyme fitness (log ratio) |
| --- | --- |
| U78C U87A C98U | -1.12 |
| A50G U78C | 0.0914 |
| A46U C101U U132C | -1.92 |
| C3U C85A G117A | -2.52 |
| G61U U132A | 0.196 |
| C53G U92C | -1.3 |
| G23A G69U | -3.97 |
| C12A C124A | 1.83 |
| G63A G120A G135C | -0.591 |
| C49U U96A U106A | -1.67 |
| G57U C72U | -0.387 |
| C49U G63C C85U | -1.05 |
| U30C C124U | -1.4 |
| C3U C28U | -2.28 |
| A29G C72U G135U | -1.91 |
| C79G C85U | -2.29 |
| C85A C97A | -7.29 |
| C70U U129A | -1.55 |
| G60A C85U | -0.816 |
| C34A C56A U78C C104U | -2.07 |
| C82G G128A U133G | -2.64 |
| C40A G61A | -0.734 |
| C13G G25A C56G A91G C99U G120U | -7.51 |
| G57U U112A | 1.54 |

| Variant | polymerase ribozyme fitness (log ratio) |
| --- | --- |
| U54C C56A C89U | -0.439 |
| G51U | -3.23 |
| U7G U106G G117U | -3.33 |
| A18U A41C C72G | -2.61 |
| A6U C86U | -0.389 |
| A46G G69C | -2.16 |
| A84C U96C A121G U125A | 1.66 |
| A46U C82A C86U G110U U131A | -4.27 |
| U7G C8A G63U G65C | -6.38 |
| U9G C13A C22G G48A | -3.85 |
| C8A C15A A41C C49A G58U G63U U131A | -3.62 |
| U92C U116C | -2.42 |
| C80U C82G C101A C124G U126A | -1.21 |
| C15G G69U C94A U109A C124A | -4.14 |
| A68G C124U | -1.26 |
| C8U G52U G61C C73G U87C U130A | -2.65 |
| C40U G69C G93A U96G | -2.24 |
| C64U U116G | -1.88 |
| C11G C64A A111U U130G | -6.86 |
| G47U C72G G117U | -5.24 |
| A18C A111G | 0.883 |
| C40A U112A | -0.958 |
| U59A U116G G120C | -0.387 |
| C73G C85G G120A | -2.18 |

| Variant | polymerase ribozyme fitness (log ratio) |
| --- | --- |
| A74U C115U A118U C124U | -0.812 |
| C8G C20A U96A U131G | -3.68 |
| G10C C11U A84U A108G | -2.5 |
| A2C C4G G39C G69U C102U | -2.39 |
| U92G C94U | -4.52 |
| C4G U55C C72U C94G | -3.35 |
| C11U A16G U54G C102U C104U G117A | -5.64 |
| A37G A100U | -1.32 |
| A2G G52A C85U | -1.87 |
| G60C C94U C124U | 1.26 |
| G57A C62U | -0.892 |
| C34A G69U G135U | -0.532 |
| C80U A103G | -5.21 |
| A16U A75G A83U A100U G110A | -4.47 |
| C40A G69U | -0.43 |
| C13G G61A C82A | -2.32 |
| C8U A26G U54C G60U | -2.1 |
| C8A C40U | -0.324 |
| G35U C62U | -3.74 |
| G39U C114U | -2.86 |
| G44A A75U A118G | -1.19 |
| G51A C62A A75C U131A | -5.36 |
| G10U C28U | -2.12 |
| C11A G47A C102A | -4.79 |

| Variant | polymerase ribozyme fitness (log ratio) |
| --- | --- |
| G42U G45U C88G G110A | -3.96 |
| A2G G10A C53U C62U A90G | -0.379 |
| C20G U55G C72U A119G | -2.6 |
| U7A A74G C85G | -1.49 |
| C49U C98U U125G | -2.62 |
| A27C C62U U92G | -5.85 |
| A5G G45U A46C G61A U78G C115U | -2.84 |
| G63C A75G C85A A95U A100C C115G U126C | -5.24 |
| G63C C80G | -6.96 |
| U38C A43U C86A | -2.82 |
| C34A G45C C53A G60U C124A | -1.69 |
| G60U G61A A91U | -2.61 |
| U7C A18G G117C | -4.72 |
| A50U C73U G117C C123A | -5.84 |
| A105G U132A | -1.89 |
| A5U A90G C123U | 0.65 |
| C12G A18G A74U U78G U87A | -4.81 |
| G23U C73A | -6.12 |
| G44U G61A C98A G117U | -7.12 |
| C88G A91C | -2.11 |
| A27C A68G G71U | -6.32 |
| G39A A41G A83G C94A | -4.25 |
| U33A G48C | -5.1 |
| C88U C97A U109G | -6.35 |

| Variant | polymerase ribozyme fitness (log ratio) |
| --- | --- |
| G57U C82G | 0.0757 |
| C4U G47A C56U C70A C101U A119G G120U G127A | -3.88 |
| U9A C12U | -0.242 |
| C11G C64G | -6.21 |
| A46U G52U | -2.32 |
| C15U C34A G60C C76U C82G A105G G113U | -6.4 |
| C72U G117C G120U U131G | -5.53 |
| C49G C62A C86A U96A | -3.84 |
| A18G G113A | -1.78 |
| U7A C114G | -2.07 |
| G48A G61C A66U | -2.1 |
| C80U C123A U129C | -1.18 |
| A18G C56U | -2.25 |
| C8A C13U U55G G93A | -0.498 |
| A18U G61A C123G | 0.0966 |
| U9A G58C A66G C85U | -0.571 |
| G61U U78A | 0.0643 |
| C72G G77A G120A | -1.96 |
| C40A G52U G63U U112A | -2.78 |
| A5U C53A C104U G113C | -1.6 |
| G39U G45U C62U U112C | -0.882 |
| C49G C70U G113U U125C U131G | -6.12 |
| A27U G52C C88U | -3.31 |
| U59A A83U G93A | -0.452 |

| Variant | polymerase ribozyme fitness (log ratio) |
| --- | --- |
| G39A G63U | -2.24 |
| U81A A121U | 1.04 |
| C31A G120C | -4.32 |
| G45U C56G | -2.16 |
| A2G C13U C53G C72G | -0.413 |
| G93C C114A | -1.83 |
| G63U C80A | -4.88 |
| A37G G57A G110C | -5.28 |
| A18C C49G | -3.27 |
| C20G A119U | -4.11 |
| A2U G71A | -2.72 |
| C4U U9C C82U | 0.225 |
| G39U A43U G52C C73G C94A C97G G110C | -7.55 |
| C101U G120C | -0.354 |
| C8G G60U C85G A108U U131A | -5.69 |
| A37U C114A A121C U125C | -0.52 |
| G60C | -0.366 |
| A27G A29U C73U U125A | -3.73 |
| C11U C101U | -0.727 |
| A2U G36C C82U G113U G135U | -5.19 |
| A2G C13A A68U C85A A103U G117U | -6.8 |
| C114G C123A | -1.74 |
| G57A C88U U112G | -2.79 |
